Experimental data reported in paper PMC6234480.
Substitutions are numbered along the chain they refer to. Names and notes keep the numbering of the source.

B1: Wild‐type TIMP3 (Tissue Inhibitor of Metalloproteinase 3) (natural protein)
chain: CTCSPSHPQDAFCNSDIVIRAKVVGKKLVKEGPFGTLVYTIKQMKMYRGFTKMPHVQYIHTEASESLCGLKLEVNKYQYLLTGRVYDGKMYTGLCNFVERWDQLTLSQRKGLNYRYHLGCNCKIKSCYYLPCFVTSKNECLWTDMLSNFGYPGYQSKHYACIRQKGGYCSWYRGWAPPDKSIINATDP
modifications: endogenous glycosylation site at Asn184
B2: WT‐HSA (wild‐type TIMP3 fused with human serum albumin) (protein)
chain: B1 chain
B3: TIMP3v2 (K22S/F34N TIMP3) (natural protein)
chain: B1 chain with K22S, F34N
modifications: additional glycosylation site (F34N), >95% occupancy by mass spectrometry; endogenous glycosylation site at Asn184
B4: v2‐Fc (TIMP3v2 fused with Fc) (Fc fusion)
chain: B1 chain with K22S, F34N
modifications: additional glycosylation site (F34N)
B5: v2‐PEG (TIMP3v2 PEGylated with 20 kDa polyethylene glycol) (natural protein)
chain: B1 chain with K22S, F34N
modifications: 20 kDa polyethylene glycol (PEG), site not stated; additional glycosylation site (F34N)
B6: v82‐HSA (TIMP3v82 fused with human serum albumin) (protein)
chain: B1 chain with H55N, Q57T, K71N, E73T, D87N, K89T, R115T
modifications: additional glycosylation sites
B7: v2‐HSA (TIMP3v2 fused with human serum albumin) (protein)
chain: B1 chain with K22S, F34N
modifications: additional glycosylation site (F34N)
B8: TIMP3v82 (H55N/Q57T/K71N/E73T/D87N/K89T/R115T) (natural protein)
chain: B1 chain with H55N, Q57T, K71N, E73T, D87N, K89T, R115T
modifications: additional glycosylation sites, site‐specific glycosylation confirmed by mass spec analysis (data not shown); endogenous glycosylation site at Asn184
B9: v82‐Fc (v82 with Fc fused in the C‐terminus) (Fc fusion)
chain: B1 chain with H55N, Q57T, K71N, E73T, D87N, K89T, R115T
modifications: additional glycosylation sites
B10: N‐TIMP3 (13.9 kDa N‐domain; aa 1‐120) (domain or fragment)
chain: CTCSPSHPQDAFCNSDIVIRAKVVGKKLVKEGPFGTLVYTIKQMKMYRGFTKMPHVQYIHTEASESLCGLKLEVNKYQYLLTGRVYDGKMYTGLCNFVERWDQLTLSQRKGLNYRYHLGC
B11: N‐HSA (N‐TIMP3 fused with human serum albumin) (protein)
chain: B10 chain
B12: N‐PEG (PEGylated N‐TIMP3) (domain or fragment)
chain: B10 chain
modifications: PEG, size and site not stated
B13: N‐Fc (N‐TIMP3 fused with Fc) (Fc fusion)
chain: B10 chain

target: recombinant rat MMP9 (rat pro‐MMP9) (rat) (UniProt P50282)
Sequence of UniProt P50282 (P50282 20-708): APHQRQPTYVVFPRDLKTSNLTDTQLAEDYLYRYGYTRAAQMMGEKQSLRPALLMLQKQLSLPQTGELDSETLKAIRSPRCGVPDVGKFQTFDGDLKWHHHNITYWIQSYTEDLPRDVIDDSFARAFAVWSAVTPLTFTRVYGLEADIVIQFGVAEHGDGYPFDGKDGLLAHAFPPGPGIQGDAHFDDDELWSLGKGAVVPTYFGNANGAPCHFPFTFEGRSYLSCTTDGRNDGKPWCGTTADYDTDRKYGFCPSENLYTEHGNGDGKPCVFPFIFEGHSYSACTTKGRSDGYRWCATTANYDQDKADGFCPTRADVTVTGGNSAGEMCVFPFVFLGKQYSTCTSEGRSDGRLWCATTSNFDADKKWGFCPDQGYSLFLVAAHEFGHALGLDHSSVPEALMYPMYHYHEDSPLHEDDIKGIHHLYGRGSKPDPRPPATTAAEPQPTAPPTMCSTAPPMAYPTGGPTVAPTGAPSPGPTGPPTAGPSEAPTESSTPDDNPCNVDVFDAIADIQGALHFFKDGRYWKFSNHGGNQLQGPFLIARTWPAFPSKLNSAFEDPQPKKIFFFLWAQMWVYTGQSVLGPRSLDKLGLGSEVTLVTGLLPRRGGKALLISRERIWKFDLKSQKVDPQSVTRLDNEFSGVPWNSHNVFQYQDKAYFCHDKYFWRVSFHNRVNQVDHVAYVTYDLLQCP

Row | Binder | IC50 of inhibition of rat MMP9 activity (cleavage of 5-FAM/QXL 520 FRET peptide, 37°C)
1 | B1 | 0.9 nM
2 | B2 | 50.8 nM
3 | B3 | 15.5 nM
4 | B4 | 36 nM
5 | B5 | 60 nM
6 | B6 | 152 nM
7 | B7 | 65 nM
8 | B8 | 14.3 nM
9 | B9 | 77 nM
10 | B10 | 2.4 nM
11 | B11 | 10.8 nM
12 | B12 | 1.3 nM

target: recombinant rat MMP2 (pro‐MMP2 activated with APMA) (rat)
Sequence (P33436 110-662): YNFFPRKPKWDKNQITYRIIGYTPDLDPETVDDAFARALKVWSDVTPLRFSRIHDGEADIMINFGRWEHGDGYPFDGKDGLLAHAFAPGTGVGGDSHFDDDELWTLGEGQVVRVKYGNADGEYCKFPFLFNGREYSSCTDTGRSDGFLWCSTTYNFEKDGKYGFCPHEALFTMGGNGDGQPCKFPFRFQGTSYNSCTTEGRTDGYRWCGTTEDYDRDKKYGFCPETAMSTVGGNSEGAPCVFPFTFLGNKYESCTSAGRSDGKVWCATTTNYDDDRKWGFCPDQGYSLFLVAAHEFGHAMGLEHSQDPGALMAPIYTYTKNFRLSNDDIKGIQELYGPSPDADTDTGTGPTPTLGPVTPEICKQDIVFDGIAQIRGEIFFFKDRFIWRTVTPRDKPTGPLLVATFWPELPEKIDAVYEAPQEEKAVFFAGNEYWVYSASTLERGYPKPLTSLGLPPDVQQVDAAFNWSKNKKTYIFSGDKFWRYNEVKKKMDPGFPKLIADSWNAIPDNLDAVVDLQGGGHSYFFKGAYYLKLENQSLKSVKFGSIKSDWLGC

Row | Binder | IC50 of inhibition of rat MMP2 activity (cleavage of 5-FAM/QXL 520 FRET peptide, 90 min, 37°C)
13 | B1 | 1.4 nM
14 | B2 | 0.2 nM
15 | B3 | 0.5 nM
16 | B4 | 0.9 nM
17 | B5 | 0.1 nM
18 | B6 | 0.3 nM
19 | B7 | 0.7 nM
20 | B8 | 0.2 nM
21 | B9 | 1 nM
22 | B10 | 3.4 nM
23 | B11 | 3.6 nM
24 | B12 | 1.7 nM

target: human recombinant TACE (TNFα converting enzyme) (human) (UniProt P78536)
Sequence of UniProt P78536 (P78536 18-824): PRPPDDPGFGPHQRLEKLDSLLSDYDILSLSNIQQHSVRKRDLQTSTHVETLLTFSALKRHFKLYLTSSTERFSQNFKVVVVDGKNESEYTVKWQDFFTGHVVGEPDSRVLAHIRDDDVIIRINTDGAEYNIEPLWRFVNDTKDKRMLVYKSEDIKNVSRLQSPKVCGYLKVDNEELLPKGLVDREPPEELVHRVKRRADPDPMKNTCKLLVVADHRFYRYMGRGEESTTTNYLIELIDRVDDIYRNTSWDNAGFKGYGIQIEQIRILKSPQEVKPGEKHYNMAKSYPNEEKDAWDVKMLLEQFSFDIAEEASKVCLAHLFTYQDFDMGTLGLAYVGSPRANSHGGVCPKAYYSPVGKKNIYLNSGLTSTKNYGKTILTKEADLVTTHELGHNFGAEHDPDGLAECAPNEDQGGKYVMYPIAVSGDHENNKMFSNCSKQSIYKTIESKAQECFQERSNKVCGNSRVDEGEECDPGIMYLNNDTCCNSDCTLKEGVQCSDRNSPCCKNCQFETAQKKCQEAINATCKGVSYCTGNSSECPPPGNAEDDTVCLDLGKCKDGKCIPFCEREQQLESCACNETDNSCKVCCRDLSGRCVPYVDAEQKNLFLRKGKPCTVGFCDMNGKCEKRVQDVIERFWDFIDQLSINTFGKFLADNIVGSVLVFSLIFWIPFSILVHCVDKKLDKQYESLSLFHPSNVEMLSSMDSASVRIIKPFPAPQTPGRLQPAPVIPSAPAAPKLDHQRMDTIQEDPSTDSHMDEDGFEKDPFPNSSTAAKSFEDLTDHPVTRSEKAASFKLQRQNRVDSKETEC

Row | Binder | IC50 of inhibition of human TACE activity (SensoLyte 520 TACE fluorimetric kit)
25 | B1 | 59 nM
26 | B2 | 12.1 nM
27 | B3 | 341 nM
28 | B4 | 618 nM
29 | B5 | 123 nM
30 | B6 | 145 nM
31 | B7 | 6800 nM
32 | B8 | 29 nM
33 | B9 | 156 nM
34 | B10 | 59 nM
35 | B11 | 195 nM
36 | B12 | 197 nM

target: catalytic domain of human MMP9 (human)
Sequence (P14780 20-707): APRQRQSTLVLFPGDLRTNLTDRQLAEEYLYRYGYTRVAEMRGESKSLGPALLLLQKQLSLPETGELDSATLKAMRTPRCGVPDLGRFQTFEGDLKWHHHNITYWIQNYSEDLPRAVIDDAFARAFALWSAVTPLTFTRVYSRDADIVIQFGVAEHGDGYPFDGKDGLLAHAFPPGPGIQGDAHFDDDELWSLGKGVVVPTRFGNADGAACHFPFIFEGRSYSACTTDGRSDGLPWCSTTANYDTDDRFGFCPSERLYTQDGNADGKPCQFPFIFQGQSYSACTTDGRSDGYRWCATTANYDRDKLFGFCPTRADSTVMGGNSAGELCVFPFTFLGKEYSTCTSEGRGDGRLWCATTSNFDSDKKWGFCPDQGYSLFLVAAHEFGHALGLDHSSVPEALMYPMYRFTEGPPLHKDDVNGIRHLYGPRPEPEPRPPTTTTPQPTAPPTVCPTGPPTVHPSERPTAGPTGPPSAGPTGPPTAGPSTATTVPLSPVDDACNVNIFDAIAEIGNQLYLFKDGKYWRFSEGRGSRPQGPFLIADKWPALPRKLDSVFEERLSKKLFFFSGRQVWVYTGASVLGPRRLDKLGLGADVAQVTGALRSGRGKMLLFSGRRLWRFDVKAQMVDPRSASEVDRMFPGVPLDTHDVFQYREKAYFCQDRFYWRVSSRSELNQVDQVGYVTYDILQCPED

Row | Binder | IC50 of inhibition of human MMP9 activity (cleavage of 5-FAM/QXL 520 FRET peptide, 37°C)
37 | B1 | 0.9 nM
38 | B2 | 0.6 nM
39 | B3 | 6.9 nM
40 | B4 | 10 nM
41 | B5 | 9 nM
42 | B6 | 7.4 nM
43 | B7 | 16 nM
44 | B8 | 2.3 nM
45 | B9 | 10.5 nM
46 | B10 | 1.5 nM
47 | B11 | 1.1 nM
48 | B12 | 0.7 nM
49 | B13 | 1.6 nM

target: recombinant human MMP2 (pro‐MMP2 activated with APMA) (human)
Sequence (P08253 30-660): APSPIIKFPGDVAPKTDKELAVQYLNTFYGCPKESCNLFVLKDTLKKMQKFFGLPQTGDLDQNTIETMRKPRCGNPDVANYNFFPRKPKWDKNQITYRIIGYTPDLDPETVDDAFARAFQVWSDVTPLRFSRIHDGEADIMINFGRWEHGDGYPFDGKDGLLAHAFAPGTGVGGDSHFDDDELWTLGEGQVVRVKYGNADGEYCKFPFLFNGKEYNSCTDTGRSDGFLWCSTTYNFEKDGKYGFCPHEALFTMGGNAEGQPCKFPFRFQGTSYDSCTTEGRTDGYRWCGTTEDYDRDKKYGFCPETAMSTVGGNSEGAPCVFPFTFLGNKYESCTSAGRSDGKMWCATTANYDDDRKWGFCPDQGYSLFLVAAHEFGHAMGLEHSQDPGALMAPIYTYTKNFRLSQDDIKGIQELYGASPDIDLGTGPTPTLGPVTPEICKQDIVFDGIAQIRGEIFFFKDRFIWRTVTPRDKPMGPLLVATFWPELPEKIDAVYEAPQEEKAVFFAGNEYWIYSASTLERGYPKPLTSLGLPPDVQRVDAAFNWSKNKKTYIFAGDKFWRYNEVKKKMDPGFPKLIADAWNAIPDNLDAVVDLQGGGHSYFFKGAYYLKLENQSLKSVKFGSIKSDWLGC

Row | Binder | IC50 of inhibition of human MMP2 activity (cleavage of 5-FAM/QXL 520 FRET peptide, 90 min, 37°C)
50 | B1 | 0.6 nM
51 | B2 | 0.8 nM
52 | B3 | 0.9 nM
53 | B4 | 0.9 nM
54 | B5 | 0.4 nM
55 | B6 | 1.6 nM
56 | B7 | 5.1 nM
57 | B8 | 1 nM
58 | B9 | 2.7 nM
59 | B10 | 5.8 nM
60 | B11 | 6 nM
61 | B12 | 9.8 nM
62 | B13 | 9.7 nM
